Measured values published in patent publication US6368809.

Target: HA-epitope tagged E2F-4 (human) (UniProt Q16254)
Test: cell-based or functional assay

Chain of UniProt Q16254 (Q16254 whole entry): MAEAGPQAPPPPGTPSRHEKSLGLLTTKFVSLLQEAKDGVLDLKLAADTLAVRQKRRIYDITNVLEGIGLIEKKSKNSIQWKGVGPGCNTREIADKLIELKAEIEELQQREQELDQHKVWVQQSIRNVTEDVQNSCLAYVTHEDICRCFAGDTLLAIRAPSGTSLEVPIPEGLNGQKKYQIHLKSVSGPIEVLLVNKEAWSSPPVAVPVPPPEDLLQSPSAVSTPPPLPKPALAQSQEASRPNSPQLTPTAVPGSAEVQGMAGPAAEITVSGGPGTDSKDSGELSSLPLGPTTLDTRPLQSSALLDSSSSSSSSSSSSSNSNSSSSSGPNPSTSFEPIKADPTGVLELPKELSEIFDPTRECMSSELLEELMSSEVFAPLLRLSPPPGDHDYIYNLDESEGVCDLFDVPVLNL

With “HA-tagged p107 (from UniProt P28749 1-1068)” the E2F-4 half life (pulse chase, immunoprecipitation with 12CA5, phosphorimager; free E2-F4 approximately 2-3 hours) was 8 h.
